Results from the supplement of paper PMC10567573.

B1: NET1 (parent)
chain: PTPAKRRSSALWSEMLDITMKESL
B2: INTS4 (parent)
chain: YSSGEFSSGRKWGDDAPKEEVDTG

Variants of: B1
Test: protein stability index of a GFP-peptide fusion (GPS, HEK-293T) (PSI 1-6); higher = more stable
Conditions: c terminus: a fixed tail appended
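Note: lentivirally expressed fusions sorted by FACS into six bins by GFP to DsRed ratio, PSI derived from sequencing read proportions per bin multiplied by bin number.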

Protein stability index of substitutions, site by site:
S8: F 1.68, M 1.59, K 2.96, Q 2.33, I 2.03, T 2.9, R 1.65, W 2.25, Y 2.28, E 2.63, G 2.53, P 2.01, D 2.65
A4: T 1.95, V 2.21, S 1.73, F 2.03, N 2.07, Y 1.82, H 1.84, Q 2.57, E 2.48, P 2.11, D 2.46, M 2.07, L 1.85, W 2.27, K 2.63, G 2.3, R 2.03, C 1.47, I 1.99
L11: N 3.5, C 2.2, M 2.89, F 1.98, V 3.16, Q 2.27, P 2.75, H 3.62, K 1.62, S 1.94, E 4.75, Y 2.39, D 4.29, T 1.71, G 4.11
S9: N 2.21, T 1.57, A 2.2, Q 2.34, I 1.86, V 1.88, G 2.79, K 1.64, E 2.4, C 1.47, F 2.05
T2: D 2.73, Y 1.86, M 2.11, N 2.38, I 2.26, Q 2.33, L 2.84, E 3.04, W 1.5, R 2.34, C 1.55, A 2.93, S 1.62, K 2.15, G 2.06, V 2.54, H 2.85, F 1.97
A10: M 2.14, E 2.35, F 2.02, P 2, S 2.1, H 2.31, C 2.18, V 1.58, K 2.83, Y 1.63, D 3.58, N 2.67, L 2.55, G 3.48, T 2.52
W12: N 4.79, F 3.26, I 3.5, E 4.65, C 4.32, Y 2.78, M 3.51, K 3.74, L 3.31, P 3.9, H 3.62, T 4.19, V 3.65, S 4.09, D 5.38, Q 4.46, A 4.09, G 4.59
R6: F 1.85, A 3.48, P 2.02, N 2.51, S 2.42, W 1.99, E 3.25, T 1.76, L 1.99, K 2.1, C 1.98, I 1.84, H 4.19, D 2.79, M 2.56, V 1.64
P3: M 2.24, A 1.88, G 2.27, W 3.24, N 2.27, K 2.44, Q 2.39, E 2.25, D 2.32, I 2.49, H 2.05, L 2.1, C 1.81, S 2.17, Y 1.61, R 2.5, T 2.21
P1: L 2.25, Q 2.78, W 1.89, C 1.75, K 2.04, I 2.07, V 2.63, R 1.92, T 1.67, H 3.04, S 1.45, A 2.56, N 2.33, M 1.72, G 2.28, D 2.12
R7: Y 2.39, Q 2.54, N 2.85, V 2.46, D 3.36, K 2.29, G 2.38, H 2.34, T 2.16, A 2.61, M 2.15, E 2.8, F 2.03, W 2.36, P 1.96, S 2.71
S13: I 2.13, N 2.49, D 3.58, M 2.64, F 1.75, W 3.21, A 1.42, K 2.34, H 2.88, R 2.42, P 2.71, G 2.86, Y 2.09, Q 1.12
K5: D 2.95, A 2.34, S 2.19, H 2.55, M 2.06, V 2.41, N 2.52, T 2.51, W 1.54, R 2.53, C 2.38, I 2.42, G 2.59, E 2.54
E14: C 1.15, A 1.55, D 2.75, F 1.58

Variants of: B2
Test: as above
Conditions: c terminus: a fixed tail appended

Protein stability index: each site, then its substitutions
D22: W 1.64, H 2.48, N 2.74, C 2.67, L 2.27, M 1.63, E 2.72, F 3.28, A 2.06, K 1.65, Y 2.02, V 1.86, P 2.38, T 2.34, R 2.73, S 2.17, I 2.66, Q 2.71, G 2.35
G24: S 2.65, A 2.59, V 2.72, P 2.4, Q 2.58, E 2.74, C 2.96, K 3.9, L 2.76, Y 2.28, N 3.09, T 2.72, D 2.16, R 2.83, F 2.63, M 2.68, I 2.25, H 2.51
T23: C 2.95, H 2.35, V 2.39, G 2.81, R 2.96, K 2.46, Q 2.15, P 1.9, F 2.47, L 2.9, M 1.99, N 2.35, S 2.67, D 2.96, W 2.05, A 2.35, Y 2.36, I 2.3, E 2.8
E19: K 2, S 2.26, M 2.93, D 2.74, T 2.72, Y 1.74, L 1.94, H 2.09, Q 2.95, I 2.32, V 1.84, F 2.97, P 2.3, G 2.48, R 1.75, N 2.52, C 2.37, A 2.67
E20: I 2.43, L 1.89, P 2.42, Q 2.6, G 2.17, D 2.49, T 2.38, K 1.91, V 2.37, C 2.5, N 2.35, S 1.91, F 2.42, W 1.97, A 2.3, M 2.31, Y 3.19, R 2.28, H 2.63
V21: K 2.8, C 3.39, M 2.78, I 2.27, Q 2.73, L 2.28, E 2.84, N 2.81, S 2.54, T 3.31, H 2.74, R 2.83, Y 2.74, D 2.92, F 2.58, G 2.94, W 1.82, P 3.13
K18: S 3.16, R 3.13, L 2.49, V 2.81, G 3.44, Q 2.92, I 2.73, D 3.16, Y 2.62, P 3.08, H 2.83, E 3.84, W 2.88, F 4.04, M 2.82, N 2.96, T 2.56
